For experiment [1], the target named is T1, Arabidopsis thaliana SCARECROW-LIKE 21 (Arabidopsis thaliana, UniProt Q9S7H5 1-413).
T1 construct: Y2H fusion domains not described; Also the endogenous protein co-purifying in the ERF115 TAP; also called SCL21; AT2G04890
T1 sequence: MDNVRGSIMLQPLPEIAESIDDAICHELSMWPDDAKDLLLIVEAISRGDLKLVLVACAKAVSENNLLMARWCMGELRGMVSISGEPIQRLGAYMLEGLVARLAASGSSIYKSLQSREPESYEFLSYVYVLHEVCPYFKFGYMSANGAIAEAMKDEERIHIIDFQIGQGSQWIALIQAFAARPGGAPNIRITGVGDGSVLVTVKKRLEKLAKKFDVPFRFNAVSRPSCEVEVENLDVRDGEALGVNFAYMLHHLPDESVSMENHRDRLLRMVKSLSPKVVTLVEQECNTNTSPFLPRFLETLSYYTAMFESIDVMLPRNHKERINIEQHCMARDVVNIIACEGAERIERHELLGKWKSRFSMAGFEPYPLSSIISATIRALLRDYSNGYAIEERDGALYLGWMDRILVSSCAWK
In words: yeast two-hybrid with ERF115 fragments. Here is the method: FIGS. 1A-1L. ERF115 interacts with SCL21 and PAT1. FIG. 1A, Protein interactions identified through TAP using ERF115 and SCL21 as bait. Arrowheads point towards co-purifying proteins. FIG. 1B, Yeast two-hybrid interaction of ERF115 full length and fragments with SCL21 and PAT1. Growth was verified on control medium (+HIS) or selective medium (−HIS) supplemented with 15 mM 3-Amino-1,2,4-triazole (3-AT), using β-glucuronidase (GUS) as a negative control. FIG. 1C, Yeast two-hybrid interaction of ERF2 and ERF6 without (−) or fused to the conserved ERF115 interaction motif (+) with SCL21. The assay was performed similar to (FIG. 1B). […], Root tips expressing ERF115 (dots) (FIGS. 1D and 1E), SCL21 (no expression visible) (FIGS. 1F and 1G), and PAT1 (dots) (FIGS. 1H And 1I) under control conditions (FIGS. 1D, 1F, and 1H) or treated with bleomycin (FIGS. 1E, 1G, and 1I). Arrowheads indicate the quiescent center (QC). Cell walls are counterstained with propidium iodide (PI). Bars=50 μm. FIGS. 1J-1L, Expression of PAT1 (green) and ERF115 (red) in root tips 10 h15 to 11 h30 after recovery from bleomycin treatment. […] Cell walls are counterstained (white) by SCRI Renaissance 2200 dye. Bars=25 μm.

For experiment [2], the target named is T2, Arabidopsis thaliana PHYTOCHROME A SIGNAL TRANSDUCTION1 (Arabidopsis thaliana, UniProt Q9LDL7 1-490).
T2 construct: 490 aa; Y2H fusion domains not described; also called PAT1; At5g48150
T2 sequence: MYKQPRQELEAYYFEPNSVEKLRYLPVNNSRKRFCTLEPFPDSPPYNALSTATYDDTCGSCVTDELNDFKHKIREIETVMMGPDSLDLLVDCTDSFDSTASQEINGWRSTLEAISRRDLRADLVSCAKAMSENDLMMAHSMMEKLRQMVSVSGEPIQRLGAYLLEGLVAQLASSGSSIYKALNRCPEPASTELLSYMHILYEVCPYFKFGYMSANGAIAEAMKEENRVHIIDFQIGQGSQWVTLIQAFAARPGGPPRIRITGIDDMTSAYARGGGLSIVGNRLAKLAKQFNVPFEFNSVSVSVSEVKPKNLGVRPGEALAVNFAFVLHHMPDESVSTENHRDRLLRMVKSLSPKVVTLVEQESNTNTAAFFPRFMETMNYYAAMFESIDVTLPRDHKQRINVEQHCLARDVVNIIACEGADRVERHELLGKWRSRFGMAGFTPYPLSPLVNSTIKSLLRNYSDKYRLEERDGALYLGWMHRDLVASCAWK
In words: yeast two-hybrid.

Results on one molecule are retold here after patent US20240294931A1 (VIB VZW, published 2024).

B1: Arabidopsis thaliana ERF115 A-fragment (N-terminal sequence that precedes the APETALA2 domain) (other)
chain: MANSGNYGKRPFRGDESDEKKEADDDENIFPFFSARSQYDMRAMVSALTQVIGNQSSSHDNNQHQPVVYNQQDPNPPAPPTQDQGLLRK
notes: Y2H fusion domains not described
Take B1: the binding result in experiment [1] and in experiment [2] was “binds” in each case.
